Source: patent publication US20250051788A1

Assays:
Experiment in all cases: anti-FLAG IP-MS vs mock IP
[1] = molecular target: Nodulin-related protein 1 (NRP1) (AT2G03440) (Arabidopsis thaliana) (UniProt Q9ZQ80)
[2] = molecular target: Phosphoserine aminotransferase (PSAT) (AT4G35630) (Arabidopsis thaliana) (UniProt Q96255)
[3] = molecular target: Thioredoxin superfamily protein (ATHM2) (AT4G03520) (Arabidopsis thaliana) (UniProt Q9SEU8)
[4] = molecular target: thioglucoside glucohydrolase 1 (TGG1) (AT5G26000) (Arabidopsis thaliana) (UniProt P37702)
UniProt P37702, sequence (P37702 20-541 limits assumed): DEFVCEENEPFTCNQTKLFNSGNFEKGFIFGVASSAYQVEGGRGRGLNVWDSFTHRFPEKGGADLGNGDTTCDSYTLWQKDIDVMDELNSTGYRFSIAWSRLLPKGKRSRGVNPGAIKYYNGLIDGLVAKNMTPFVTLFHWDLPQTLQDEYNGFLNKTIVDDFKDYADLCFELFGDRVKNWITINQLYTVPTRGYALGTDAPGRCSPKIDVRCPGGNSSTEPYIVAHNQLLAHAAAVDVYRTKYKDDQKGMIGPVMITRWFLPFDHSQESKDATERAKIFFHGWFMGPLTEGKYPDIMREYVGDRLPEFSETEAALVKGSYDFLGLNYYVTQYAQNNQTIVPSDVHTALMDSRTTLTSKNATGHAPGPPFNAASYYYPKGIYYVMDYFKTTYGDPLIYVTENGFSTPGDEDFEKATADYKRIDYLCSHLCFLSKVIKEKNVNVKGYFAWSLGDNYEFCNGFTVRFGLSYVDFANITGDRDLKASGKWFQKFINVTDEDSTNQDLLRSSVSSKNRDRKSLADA

UniProt Q9ZQ80, sequence (Q9ZQ80 whole entry): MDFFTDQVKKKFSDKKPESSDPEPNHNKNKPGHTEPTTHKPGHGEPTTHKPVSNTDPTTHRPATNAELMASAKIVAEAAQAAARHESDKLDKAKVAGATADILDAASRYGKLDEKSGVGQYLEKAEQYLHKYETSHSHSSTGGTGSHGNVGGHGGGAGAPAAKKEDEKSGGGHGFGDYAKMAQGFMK
UniProt Q96255, sequence (Q96255 52-430): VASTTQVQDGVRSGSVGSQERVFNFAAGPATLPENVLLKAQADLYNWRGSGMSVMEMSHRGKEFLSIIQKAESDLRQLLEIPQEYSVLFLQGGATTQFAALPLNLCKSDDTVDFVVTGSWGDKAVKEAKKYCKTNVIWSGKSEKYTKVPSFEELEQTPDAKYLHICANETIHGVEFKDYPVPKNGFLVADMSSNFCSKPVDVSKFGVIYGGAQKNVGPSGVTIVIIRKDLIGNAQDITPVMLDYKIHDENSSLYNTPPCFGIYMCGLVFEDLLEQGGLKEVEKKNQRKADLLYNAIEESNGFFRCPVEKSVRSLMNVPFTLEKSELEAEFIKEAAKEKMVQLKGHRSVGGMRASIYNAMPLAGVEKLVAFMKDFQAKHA
UniProt Q9SEU8, sequence (Q9SEU8 73-186): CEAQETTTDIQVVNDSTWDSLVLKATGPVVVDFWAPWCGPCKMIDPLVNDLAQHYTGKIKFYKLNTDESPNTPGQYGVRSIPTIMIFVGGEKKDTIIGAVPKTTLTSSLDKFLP

- Log2(FC) Replicate 1/ Mock [1]: 2 log2
- Log2(FC) Replicate 2/ Mock [1]: 2.5 log2
- Log2(FC) Replicate 3/ Mock [1]: 1.74 log2
- Log2(FC) Replicate 4/ Mock [1]: 1.87 log2
- Log2(FC) Replicate 1/ Mock [2]: 3.09 log2
- Log2(FC) Replicate 2/ Mock [2]: 3.17 log2
- Log2(FC) Replicate 3/ Mock [2]: 1.81 log2
- Log2(FC) Replicate 4/ Mock [2]: 1.81 log2
- Log2(FC) Replicate 1/ Mock [3]: 0.585 log2
- Log2(FC) Replicate 2/ Mock [3]: 2.17 log2
- Log2(FC) Replicate 3/ Mock [3]: 3.39 log2
- Log2(FC) Replicate 4/ Mock [3]: 3.09 log2
- Log2(FC) Replicate 1/ Mock [4]: -0.214 log2
- Log2(FC) Replicate 2/ Mock [4]: 0.697 log2
- Log2(FC) Replicate 3/ Mock [4]: 1.95 log2
- Log2(FC) Replicate 4/ Mock [4]: 1.84 log2
Substance: FLAG-BD (FLAG-tagged minimal Arabidopsis BRN1 protein that contains only the first two RRM domains) (from UniProt Q8LFS6 2-199)
